{"source": "patent US11713337B2", "about": "“Peptide, compositions and method for delivery of agents into cells and tissues” (priority 2019, dated 2023)", "molecules": {"B1": {"name": "decorin: human recombinant decorin, a small leucine rich proteoglycan (protein, UniProt P07585 31-359, looked up)", "Decorin": "DEASGIGPEVPDDRDFEPSLGPVCPFRCQCHLRVVQCSDLGLDKVPKDLPPDTTLLDLQNNKITEIKDGDFKNLKNLHALILVNNKISKVSPGAFTPLVKLERLYLSKNQLKELPEKMPKTLQELRAHENEITKVRKVTFNGLNQMIVIELGTNPLKSSGIENGAFQGMKKLSYIRIADTNITSIPQGLPPSLTELHLDGNKISRVDAASLKGLNNLAKLGLSFNSISAVDNGSLANTPHLRELHLDNNKLTRVPGGLAEHKYIQVVYLHNNNISVVGSSDFCPPGHNTKKASYSGVSLFSNPVQYWEIQPSTFRCVYVRSAIQLGNYK"}, "B2": {"name": "Cre recombinase: Cre recombinase protein, approximately 38 Kd (protein, UniProt P06956 1-343, looked up)", "Recombinase cre": "MSNLLTVHQNLPALPVDATSDEVRKNLMDMFRDRQAFSEHTWKMLLSVCRSWAAWCKLNNRKWFPAEPEDVRDYLLYLQARGLAVKTIQQHLGQLNMLHRRSGLPRPSDSNAVSLVMRRIRKENVDAGERAKQALAFERTDFDQVRSLMENSDRCQDIRNLAFLGIAYNTLLRIAEIARIRVKDISRTDGGRMLIHIGRTKTLVSTAGVEKALSLGVTKLVERWISVSGVADDPNNYLFCRVRKNGVAAPSATSQLSTRALEGIFEATHRLIYGAKDDSGQRYLAWSGHSARVGAARDMARAGVSIPEIMQAGGWTNVNIVMNYIRNLDSETGAMVRLLEDGD"}}, "key": {"retina [1]": {"test_system": "retina", "assay": "Retinal penetration of FAM-labeled Nuc1 after intravitreal injection", "experimental": "Intravitreal and subretinal injections: Mice were anesthetized by injecting intraperitoneally a cocktail mixture containing Ketamine (100 mg/kg, Phoenix™, St Joseph, Mo.) and Xylazine (10 mg/kg, Lloyed, Shenandoah, Iowa) followed by topical application of 0.5% proparacaine hydrochloride (Akorn Inc., Lake Forest, Ill., USA) for topical analgesia to the cornea. Mice were kept warm during anesthesia. lntravitreal and subretinal injections were performed using a 32-gauge needle and a 5μI glass syringe, as previously described (Cashman et al., 2015). […] Four hours post injection (as indicated), eyes were enucleated and fixed in 4% paraformaldehyde. […] Retinal cryosections were taken using a Micron 550 cryostat.\nFour hours post injection, eyes of these mice were enucleated and fixed in 4% paraformaldehyde. Retinal cryosections were generated using a Micron 550 cryostat and sections were imaged using a fluorescent microscope."}, "retina [2]": {"test_system": "retina", "details": "1 μg dexamethasone alone or with 1 μg Nuc1", "quoted_text": "We hypothesized that Nuc1 may facilitate penetration of steroids into tissues, enabling a steroid to be applied in a reduced dosage without loss of efficacy. To test this hypothesis, we injected either 1 μg fluorescently labeled dexamethasone alone or fluorescently labeled dexamethasone in combination with 1 μg Nuc1."}, "[3]": {"test_system": "gliosis in the retina after alkali burn", "assay": "Alkali burn of the cornea: GFAP staining of retina (gliosis)", "assay_type": "in vivo, C57BL/6 mice", "details": "topical to cornea for 7 days after alkali burn", "source_text": "(§1) Mice were kept warm during anesthesia. Alkali burn was induced in the cornea by applying 2 mm filter paper discs soaked with 1N sodium hydroxide (NaOH) on the central cornea of the right eye for 30 seconds. The filter paper was gently removed from the cornea and the cornea rinsed with phosphate buffered saline (PBS) 10 times to clear residual NaOH. The left eye was left unexposed to NaOH and served as a control. […] The treatments were applied topically once a day for seven days. Images of the eye were captured on day 7 using a digital camera. After 7 days, mice were sacrificed by CO2 inhalation, followed by cervical dislocation. The eyes were enucleated and fixed in 4% paraformaldehyde. Corneal cryosections were taken using a Micron 550 cryostat.\nImmunochemistry: Cryosections were air dried for 10 minutes and washed in PBS for 5 minutes. They were subsequently incubated in 6% normal goat serum and PBS-Triton for 1 hour at room temperature for permeabilization and blocking. The slides were incubated with FITC-conjugated isolectin or with primary antibody against one of following: α-smooth muscle actin (SMA), glial fibrillary acidic protein (GFAP), CD45, transforming growth factor beta (TGF-β1), F4/80, transforming growth factor beta (TGF-β1) (Abcam; ab92486), or activated Caspase-3. […] The intensity of the antibody specific staining was quantified using ImageJ software. […]"}, "[4]": {"test_system": "alkali burn of the cornea", "assay": "Alkali burn of the cornea: corneal opacity and H+E histology", "assay_type": "in vivo, C57BL/6 mice", "source_text": "as §1\nHistopathology: The eyes were harvested for histology 7 days post-treatment and fixed in Hartman's fixative. After 48 hours, the specimens were dehydrated through alcohol steps and embedded in paraffin. […] sections were cut at different planes, including the optic nerve region, and stained with Hematoxylin & Eosin (H&E). Imaging of stained sections was performed using an Olympus BX51 microscope using a Retiga 2000r camera.\nOn day 7, mice were sacrificed for imaging of corneas (FIG. 14A). […] Mice were scored for clinical opacity based on method described by Anderson et al.. […]"}, "[5]": {"test_system": "alkali burn of the cornea", "assay": "Alkali burn of the cornea: TUNEL assay on corneal cryosections", "assay_type": "in vivo, C57BL/6 mice", "details": "7 days topical treatment", "source_text": "as §1\nTUNEL assay: To detect cell death, the terminal deoxynucleotidyl transferase-mediated dUTP-biotin nick-end labeling (TUNEL) method was performed on corneal cryosections using the In Situ Death Detection Kit, TMR Red (Sigma), as per the manufacturer's instructions. The sections were imaged, as described above, and images used for quantification of TUNEL positive cells using ImageJ (FIJI version and plug in), as previously described."}, "[6]": {"test_system": "alkali burn of the cornea", "assay": "Alkali burn of the cornea: multiplex ELISA of cytokines in corneal lysates", "assay_type": "in vivo, C57BL/6 mice", "details": "7 days topical treatment, Bioplex", "source_text": "as §1\nMultiplex ELISA: Multiplex ELISA was performed to detect IL-6, IL-17, IL-10, IFN-G, TNF-α, and IL-1β using Bio-plex pro mouse cytokineTh17 A 6 plex group I (Bio-Rad, M6000007NY), as per the manufacturer's instructions. Briefly, alkali burn was induced as described above. Mice were sacrificed on day 7 and corneas were extracted. The corneas were dissected into small pieces and stored at −80° C. in Bioplex cell lysis buffer. Two corneas were pooled together for each sample and 50 μl of the lysate was used in duplicate for each sample. The samples were run using the Bio plex manager MP software and the data was analyzed using Bioplex manager 6.0."}, "[7]": {"test_system": "alkali burn of the cornea", "assay": "Alkali burn of the cornea: staining of corneal cryosections (isolectin, SMA, CD45, F4/80, TGF-β1, activated Caspase-3)", "assay_type": "in vivo, C57BL/6 mice", "source_text": "The filter paper was gently removed and the cornea was rinsed with phosphate buffered saline (PBS) 10 times. […] The treatments were applied topically once a day for seven days. After 7 days, mice were sacrificed by CO2 inhalation. Eyes were enucleated and fixed in 4% paraformaldehyde. Corneal cryosections were taken using a Micron 550 cryostat and stained for α-actin, a marker of fibrosis.\nas §1\nImmunochemistry: Cryosections were air dried for 10 minutes and washed in PBS for 5 minutes. They were subsequently incubated in 6% normal goat serum and PBS-Triton for 1 hour at room temperature for permeabilization and blocking. The slides were incubated with FITC-conjugated isolectin or with primary antibody against one of following: α-smooth muscle actin (SMA), glial fibrillary acidic protein (GFAP), CD45, transforming growth factor beta (TGF-β1), F4/80, transforming growth factor beta (TGF-β1) (Abcam; ab92486), or activated Caspase-3. This incubation was performed at 4° C. in a moist chamber overnight. For samples treated with antibodies, detection was performed by incubation with a secondary Cy3-conjugated goat anti-rabbit/anti-mouse antibody (Jackson lmmunoResearch, West Grove, Pa.) for 1 hour at room temperature. The slides were washed three times with PBS and mounted in Vectashield anti fade mounting medium containing DAPI to counterstain the nuclei. Imaging of stained sections was performed using an Olympus IX51 microscope and appropriate filters. Images were captured using a Retiga 2000r camera. The intensity of the antibody specific staining was quantified using ImageJ software."}, "[8]": {"test_system": "floxed stop tdTomato reporter in retina", "assay": "Cre recombinase uptake and gene editing in Ai9 reporter mice (tdTomato)", "assay_type": "in vivo", "details": "4 micrograms Cre recombinase alone or with 1 microgram Nuc1, intravitreal", "source_text": "In these mice, a reporter tdTomato transgene expression cassette is turned on when a foxed stop codon is excised by Cre recombinase. […] The observation that Cre recombinase can enter cells by itself was surprising. However, the above assay is highly sensitive due to the fact that one gene editing event is substantially amplified through the continuous production of protein that accumulates in the cell."}}, "note": "“And” between values parts separate entries of the source, which are not always exact repeats. Equal entries are not always repeated. “Also recorded” adds a separate entry of the source. Peptide text beside a SMILES is read from it. * marks the point of attachment. 5FAM = O=C1OC2(c3ccc(O)cc3Oc3cc(O)ccc32)c2ccc(C(=O)*)cc21"}
{"molecule": "CC[C@H](C)[C@H](NC(=O)[C@H](CO)NC(=O)[C@H](C)NC(=O)c1ccc2c(c1)C(=O)OC21c2ccc(O)cc2Oc2cc(O)ccc21)C(=O)N[C@@H](CCCCN)C(=O)N[C@H](C(=O)N[C@@H](C)C(=O)N[C@H](C(=O)N[C@@H](CO)C(=O)N[C@@H](C)C(=O)NCC(=O)NCC(=O)N[C@@H](CC(=O)O)C(=O)N[C@@H](CCCCN)C(=O)N1CCC[C@H]1C(=O)N[C@@H](CCCNC(=N)N)C(=O)N[C@@H](CCCNC(=N)N)C(=O)O)C(C)C)C(C)C", "note": "[FAM labeled Nuc1] (5FAM-ASIKVAVSAGGDKPRR-OH)", "values": [{"measurement": "localization in retina (fluorescence microscopy of cryosections)", "setting": "retina [1]; mouse, in vivo", "result": "localized to all layers of the retina"}]}
{"molecule": "O=C(O)c1ccc2c(c1)C1(OC2=O)c2ccc(O)cc2Oc2cc(O)ccc21", "note": "[6-FAM, reference compound]", "values": [{"measurement": "localization in retina (fluorescence microscopy of cryosections)", "setting": "retina [1]; 1 ug in 1 ul H2O intravitreal, four hours post injection, adult mice", "result": "unable to penetrate retina"}]}
{"molecule": "C[C@@H]1C[C@H]2[C@@H]3CCC4=CC(=O)C=C[C@]4(C)[C@@]3(F)[C@@H](O)C[C@]2(C)[C@@]1(O)C(=O)CO", "note": "[dexamethasone]", "values": [{"measurement": "uptake of fluorescently labeled dexamethasone into the retina", "setting": "retina [2]", "result": "taken up into the retina"}]}
{"molecule": "B1", "values": [{"measurement": "GFAP staining of retina (Muller cell activation, gliosis)", "setting": "[3]", "result": "reduced staining relative to the retinas of mice treated with PBS"}, {"measurement": "corneal histology (H+E transverse sections)", "setting": "[4]; 7 days topical treatment, relative to PBS", "result": "increase in thickness of the epithelium; also recorded: vacuolization was apparent"}, {"measurement": "clinical opacity score (method of Anderson et al.)", "setting": "[4]; topical once daily for 7 days from 24 hours post alkali burn, PBS scored 4", "result": 2.8}, {"measurement": "TUNEL staining of cornea, images (cell death)", "setting": "[5]", "result": "considerable reduction in TUNEL staining in the corneal stroma"}, {"measurement": "reduction in TUNEL staining relative to PBS (quantification)", "setting": "[5]", "result": 44.8, "unit": "%"}, {"measurement": "IFN-G expression in corneal lysate relative to PBS treated mice", "setting": "[6]", "result": "reduction in expression"}, {"measurement": "IL-1β expression in corneal lysate", "setting": "[6]", "result": "increased expression"}, {"measurement": "IL-6 expression in corneal lysate relative to PBS treated mice", "setting": "[6]", "result": "reduction in expression"}, {"measurement": "IL-17 expression in corneal lysate relative to PBS treated mice", "setting": "[6]", "result": "reduction in expression"}, {"measurement": "TNF-α expression in corneal lysate relative to PBS treated mice", "setting": "[6]", "result": "reduction in expression"}, {"measurement": "CD45 staining of cornea, images (leukocytes)", "setting": "[7]; 7 days topical treatment", "result": "reduction in CD45 and F4/80 staining in the anterior region of the stroma"}, {"measurement": "F4/80 staining of cornea, images (macrophages)", "setting": "[7]; 7 days topical treatment", "result": "reduction in CD45 and F4/80 staining in the anterior region of the stroma"}, {"measurement": "SMA staining of cornea, images (fibrosis)", "setting": "[7]; 7 days topical treatment", "result": "modest reduction of SMA staining"}, {"measurement": "TGF-β1 expression in cornea (antibody staining)", "setting": "[7]; 7 days topical treatment", "result": "lower expression of TGF-β1"}, {"measurement": "activated Caspase-3 staining of cornea, images, relative to PBS treated mice", "setting": "[7]; 7 days topical treatment", "result": "considerable reduction in the staining for activated Caspase-3 in the stroma and endothelium"}, {"measurement": "isolectin (GSL I) staining of cornea, images (neovascularization)", "setting": "[7]; 7 days topical treatment", "result": "obvious reduction in isolectin staining"}, {"measurement": "reduction in CD45 staining / CD45-positive cells relative to corneas treated with PBS", "setting": "[7]; 7 days topical treatment", "result": 39.6, "unit": "%"}, {"measurement": "reduction in F4/80 staining relative to corneas treated with PBS", "setting": "[7]; 7 days topical treatment", "result": "no significant reduction"}, {"measurement": "reduction in isolectin staining relative to PBS treated corneas (quantification)", "setting": "[7]; 7 days topical treatment", "result": "not significantly different to that of PBS treated corneas"}, {"measurement": "reduction in activated Caspase-3 staining (quantification of fluorescent signal)", "setting": "[7]; 7 days topical treatment, reference PBS treated (implied)", "result": 51.5, "unit": "%"}, {"measurement": "reduction in α-actin (SMA) staining relative to PBS (fibrosis)", "setting": "[7]; topical 0.5 μg decorin with or without 0.5 μg Nuc1 once a day for seven days, from 24 hours after NaOH", "result": "33.3% and 33.25%"}]}
{"molecule": "B2", "values": [{"measurement": "tdTomato positive Muller cells", "setting": "[8]", "result": "almost no Muller cells expressing tdTomato"}, {"measurement": "tdTomato reporter expression in retina", "setting": "[8]", "result": "detectable tdTomato expression"}]}
